Data on four molecules can be found in patent publication US20200109196A1 (MOGAM INSTITUTE FOR BIOMEDICAL RESEARCH, published 2020).

In experiment [1] the target is T1, CEACAM6 expressed on the surface of HEK293 cells (human, UniProt P40199 35-320).
T1 construct: whole, on cells; GFP-tagged clone; also called CEACAM6-GFP
T1 sequence (looked up): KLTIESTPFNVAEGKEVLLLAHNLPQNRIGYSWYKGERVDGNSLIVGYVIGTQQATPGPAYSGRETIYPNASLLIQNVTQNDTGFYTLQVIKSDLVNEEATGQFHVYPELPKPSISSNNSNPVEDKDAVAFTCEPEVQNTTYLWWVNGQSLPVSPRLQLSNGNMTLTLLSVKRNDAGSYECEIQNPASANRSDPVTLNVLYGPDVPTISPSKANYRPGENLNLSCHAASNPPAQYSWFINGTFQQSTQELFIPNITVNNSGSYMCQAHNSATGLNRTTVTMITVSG
Put plainly: flow cytometry on transfected HEK293 cells (GFP+ gate), PE goat anti-huIgG4 [b]. How it is done:
(§1) HEK293 cells were added with 10 μg of each pEF1α-AcGFP-N1 vector (Clontech, Cat. No. 631973) as a control vector, CEACAM1, CEACAM3, CEACAM5, CEACAM6 and CEACAM8 plasmid vectors, followed by transfection under the condition of pulse voltage 1,100 V, pulse width 20 ms and pulse number 2. After 48 hours of transfection, GFP expression was confirmed by fluorescence microscopy. The cells were detached by treatment with 1 ml of TrypLE Express Solution (ThermoFisher Scientific; Cat. No. 12605010), resuspended in 9 ml of DMEM (Gibco, Cat. No. 11995-065) supplemented with 10% (v/v) FBS, and centrifuged at 1,200 rpm for 5 minutes, to remove the resulting supernatant.
(§2) After washing once with PBS, the cells were resuspended in a FACS buffer to obtain a concentration of 5×10⁵ cells/100 μl. Human Fc Block solution was added to the samples at 1 μl/sample, which were incubated at 4° C. for 10 minutes. The cells were treated with hulgG4 or one of the anti-CEACAM1 clones listed at 1 μg/5×10⁵ cells, which were incubated at 4° C. for 10 minutes. After washing with FACS buffer, the PE-labeled goat-anti-huIgG4 antibodies were diluted at a ratio of 1:200 in a FACS buffer, and added to the samples at 100 μl/sample, which were incubated at 4° C. for 30 minutes. The samples were filled with a FACS buffer up to 200 μl, and then centrifuged at 1,200 rpm for 5 minutes, to remove the resulting supernatant. The fixation buffer (300 μl) was added to resuspend the cells. The cells expressing GFP were selected in the FACS LSR-Fortessa device, and the expression of CEACAM members were evaluated respectively using the antibody specific to each CEACAM member (Table 3). Also, the binding of anti-CEACAM1 antibodies was evaluated by PE fluorescence channel and analyzed using the FlowJo software.

Experiment [2] deals with T2, CEACAM8 expressed on the surface of HEK293 cells (human, UniProt P31997 35-320).
T2 construct: whole, on cells
T2 sequence (looked up): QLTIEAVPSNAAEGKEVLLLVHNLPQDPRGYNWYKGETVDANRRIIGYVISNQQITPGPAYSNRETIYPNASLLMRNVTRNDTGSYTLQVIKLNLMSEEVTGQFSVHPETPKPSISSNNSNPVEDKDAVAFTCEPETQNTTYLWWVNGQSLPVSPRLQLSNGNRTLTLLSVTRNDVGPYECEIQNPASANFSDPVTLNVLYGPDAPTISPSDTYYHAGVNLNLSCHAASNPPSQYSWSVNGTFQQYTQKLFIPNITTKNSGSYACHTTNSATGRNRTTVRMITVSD
The experiment is described as above. As to the method:
as §1, §2

B1: 4R26 (antibody, human IgG4 S228P, lambda, V domains shown)
VH: EVQLLESGGGLVQPGGSLRLSCAASGFTFSNYAMSWVRQAPGKGLEWVSVISHGGGSIYYADSVKGRLTISRDNSKNTLYLQMNSLRAEDTAVYYCARDPTKGYAPTFDYWGQGTLVTVSS
VL: QSVLTQPPSASGTPGQRVTISCSGSSSNIGNNYVSWYQQLPGTAPKLLIYADSKRLSGVPDRFSGSKSGTSASLAISGLRSEDEADYYCGAWDGRLNGYVFGGGTKLTVLG
notes: also called C25-derived clone 4R26
With B1, the binding result in experiment [1] and in experiment [2] was “no binding” in each case.

B2: 4R9 (antibody, human IgG4 S228P, lambda, V domains shown)
VH: EVQLLESGGGLVQPGGSLRLSCAASGFTFSNYAMSWVRQAPGKGLEWVSVISHGGGSIYYADSVKGRLTISRDNSKNTLYLQMNSLRAEDTAVYYCARDPTKGYAPTFDYWGQGTLVTVSS
VL: QSVLTQPPSASGTPGQRVTISCSGSSSNIGNNYVSWYQQLPGTAPKLLIYADSRRPSGVPDRFSGSKSGTSASLAISGLRSEDEADYYCGAWDLSLNGYVFGGGTKLTVLG
notes: also called C25-derived clone 4R9
On to B2, for which the binding result in experiment [1] and in experiment [2] was “no binding” in each case.

B3: 4R9_H4-n20 (antibody, human IgG4 S228P, lambda, V domains shown)
VH: EVQLLESGGGLVQPGGSLRLSCAASGFNFSNYAMSWVRQAPGKGLEWVSVISHGGGSIYYADSVKGRLTISRDNSKNTLYLQMNSLRAEDTAVYYCARDPTKGYAPTFDYWGQGTLVTVSS
VL: QSVLTQPPSASGTPGQRVTISCSGSSSNIGNNYVSWYQQLPGTAPKLLIYADSRRPSGVPDRFSGSKSGTSASLAISGLRSEDEADYYCGAWDLSLNGYVFGGGTKLTVLG
notes: also called C25-derived clone 4R9_H4-n20
Turning to B3, the binding result in experiment [1] and in experiment [2] was “no binding” each time.

B4: 4R9_H2-2 (antibody, human IgG4 S228P, lambda, V domains shown)
VH: EVQLLESGGGLVQPGGSLRLSCAASGFTFSNYAMSWVRQAPGKGLEWVSVISHGGGSIYYADSVKGRLTISRDNSKNTLYLQMNSLRAEDTAVYYCARDPTKGYAPLFDYWGQGTLVTVSS
VL: QSVLTQPPSASGTPGQRVTISCSGSSSNIGNNYVSWYQQLPGTAPKLLIYADSRRPSGVPDRFSGSKSGTSASLAISGLRSEDEADYYCGAWDLSLNGYVFGGGTKLTVLG
notes: also called C25-derived clone 4R9_H2-2
With B4, the binding result in experiment [1] and in experiment [2] was “no binding” throughout.
